Data on one substance can be found in paper PMC8960804.

For orientation: stoichiometry N means the number of molecules, sites or subunits per partner or assembly.

The target in this assay is RexT, redox-sensing transcriptional regulator of Nostoc (Anabaena) sp. PCC 7120, tag-free, reduced (Nostoc (Anabaena) sp. PCC 7120). Briefly: SEC; HiLoad 16/600 Superdex 200 pg, 50 mM HEPES pH 7.5, 100 mM NaCl, 5% v/v glycerol, 2 mM DTT. (In general: Size exclusion chromatography separates by hydrodynamic size, large species first.)

“RexT, redox-sensing transcriptional regulator of Nostoc (Anabaena) sp. PCC 7120, tag-free, reduced (natural protein)”: the stoichiometry N came out at 2.
